In patent publication US20150166663A1 (AstraZeneca / MedImmune, published 2015):

What was measured:
[1] = target: T1, cynomolgus αV on transfected HEK-293 cells (cynomolgus, UniProt A0A2K5WCD3 31-1048); assay: FACS, purified mAb, transiently transfected HEK-293 cells (parental cells 49)
T1 construct: Chain transfected alone; also called Cynomolgus alphaV
Experimental: (§1) Cross-reactivity of the mAbs to macaque and mouse αVβ6 was tested on the purified mAbs using FACS analysis on HEK-293 cells transiently transfected with cynomolgus or mouse αV, β6, or αVβ6. Approximately 48 hours after transfection, the cells were collected and resuspended in FACS buffer to reach a final concentration of approximately 50,000 cells in 100 μL.
(§2) Approximately 100,000 cells total, were used in each reaction as follows. 200 μL of 293 cells were dispensed into a V-bottom plate. The cells in the plate were pelleted at 1500 rpm for 3 minutes, and then resuspended in 100 μL FACS buffer. The pelleting step was repeated, and the FACS buffer supernatant was removed. The purified mAbs, or control primary antibodies were added in a volume of 50 μL and the cells were resuspended. […] The plate was incubated on ice for 45 minutes, after which 100 μL FACS buffer was added to dilute the primary antibody. The cells were then pelleted by centrifuging at 1500 rpm for 3 minutes, and the pellet was resuspended in 100 μL FACS buffer. The pelleting step was repeated, and the FACS buffer supernatant was removed. Cells were then resuspended in the appropriate secondary antibody (5 μg/ml) with 7AAD dye (10 μg/ml), and stained on ice for 7 minutes. Then 150 μL of FACS buffer was added and the cells were pelleted at 1500 rpm for 3 minutes, after which the cells were washed in 100 μL FACS buffer, pelleted, and then resuspended in 250 μL buffer and added to FACS tubes. Samples were analyzed on a high throughput FACS machine and analyzed using Cell Quest Pro software.

[2] = target: T2, mouse αVβ6 on cells (mouse, UniProt P43406 31-1044; Q9Z0T9 22-787); assay: as above
T2 construct: whole, on cells; also called Mouse alphaVbeta6
T2 sequence (P43406 31-1044, chain 1 of 2): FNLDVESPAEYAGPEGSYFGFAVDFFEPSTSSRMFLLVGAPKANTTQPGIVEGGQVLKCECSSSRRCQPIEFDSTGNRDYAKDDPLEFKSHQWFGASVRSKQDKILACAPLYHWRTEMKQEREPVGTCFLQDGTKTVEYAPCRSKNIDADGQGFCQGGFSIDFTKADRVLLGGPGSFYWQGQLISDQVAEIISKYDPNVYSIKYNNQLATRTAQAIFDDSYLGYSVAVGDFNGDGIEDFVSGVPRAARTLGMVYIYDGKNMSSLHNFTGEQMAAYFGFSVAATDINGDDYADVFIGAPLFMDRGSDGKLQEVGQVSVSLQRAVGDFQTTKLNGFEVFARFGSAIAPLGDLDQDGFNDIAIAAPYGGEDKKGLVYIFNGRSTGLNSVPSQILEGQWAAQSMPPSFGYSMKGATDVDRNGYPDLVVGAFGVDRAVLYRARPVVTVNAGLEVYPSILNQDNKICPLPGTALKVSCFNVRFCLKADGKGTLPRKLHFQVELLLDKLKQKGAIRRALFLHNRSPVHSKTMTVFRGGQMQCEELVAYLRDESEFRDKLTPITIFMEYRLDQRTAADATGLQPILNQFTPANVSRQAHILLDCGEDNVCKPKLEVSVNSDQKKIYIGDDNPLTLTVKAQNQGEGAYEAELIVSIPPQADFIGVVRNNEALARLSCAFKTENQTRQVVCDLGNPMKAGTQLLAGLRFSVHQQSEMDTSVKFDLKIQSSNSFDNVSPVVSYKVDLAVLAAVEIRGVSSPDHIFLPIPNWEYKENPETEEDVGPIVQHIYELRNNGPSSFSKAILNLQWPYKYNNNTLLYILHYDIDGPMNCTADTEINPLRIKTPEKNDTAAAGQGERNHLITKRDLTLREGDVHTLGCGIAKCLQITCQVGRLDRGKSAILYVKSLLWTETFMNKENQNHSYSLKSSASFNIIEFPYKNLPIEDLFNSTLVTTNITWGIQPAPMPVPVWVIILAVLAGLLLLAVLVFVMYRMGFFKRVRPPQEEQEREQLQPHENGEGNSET
T2 sequence (Q9Z0T9 22-787, chain 2 of 2): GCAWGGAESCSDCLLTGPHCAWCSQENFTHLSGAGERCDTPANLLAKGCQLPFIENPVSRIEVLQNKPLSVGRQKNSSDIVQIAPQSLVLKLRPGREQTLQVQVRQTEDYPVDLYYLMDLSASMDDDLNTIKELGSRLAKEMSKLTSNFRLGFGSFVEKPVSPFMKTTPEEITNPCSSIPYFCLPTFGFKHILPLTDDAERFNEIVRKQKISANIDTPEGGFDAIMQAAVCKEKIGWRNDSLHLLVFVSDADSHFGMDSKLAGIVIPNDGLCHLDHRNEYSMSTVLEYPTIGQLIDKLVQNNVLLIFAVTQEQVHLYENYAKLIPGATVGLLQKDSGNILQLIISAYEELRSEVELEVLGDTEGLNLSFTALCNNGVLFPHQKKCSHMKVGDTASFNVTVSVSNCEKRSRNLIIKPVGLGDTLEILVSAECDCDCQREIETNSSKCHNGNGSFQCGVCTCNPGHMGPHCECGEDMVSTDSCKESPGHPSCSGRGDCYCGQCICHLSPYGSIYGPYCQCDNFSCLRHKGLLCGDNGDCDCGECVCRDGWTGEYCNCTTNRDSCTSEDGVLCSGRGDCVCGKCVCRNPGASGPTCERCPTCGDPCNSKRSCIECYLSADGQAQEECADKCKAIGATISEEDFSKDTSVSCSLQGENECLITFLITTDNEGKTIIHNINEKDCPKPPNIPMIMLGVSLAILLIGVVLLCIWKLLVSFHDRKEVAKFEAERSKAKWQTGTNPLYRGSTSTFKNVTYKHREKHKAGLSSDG
Experimental: as §1, §2

[3] = target: T3, cynomolgus αVβ6 on cells (cynomolgus); assay: as above
T3 construct: whole, on cells; also called macaque αVβ6; Mac AVB6
Experimental: as §1, §2

[4] = target: T3, cynomolgus αVβ6 on cells; assay: FACS, supernatant, HEK-293 cells transfected with cynomolgus αV and β6
Experimental: The assays were performed as follows. […] The cells were then pelleted, the supernatant discarded, and resuspended in FACS buffer and incubated for 30 minutes at 37° C. Cells were then washed twice with FACS buffer and resuspended in a final volume of 100 μL FACS buffer per well.
HEK-293 cells were transiently transfected with cynomolgus αV and cynomolgus β6. After 48 hours, the cells were collected and resuspended in FACS buffer to reach a final concentration of approximately 50,000 cells in 100 μL.
Approximately 100,000 cells total, comprising a 50:50 mix of CFSE-labeled A375M cells and transfected 293 cells, were used in each reaction as follows. 100 μL of CFSE-labeled A375M cells and 100 μL of 293 cells were dispensed into a V-bottom plate. The cells in the plate were pelleted at 1500 rpm for 3 minutes, and then resuspended in 100 μL FACS buffer. The pelleting step was repeated, and the FACS buffer supernatant was removed. The harvested antibody-containing supernatants, or control primary antibodies were added in a volume of 50 μL and the cells were resuspended. […] The plate was incubated on ice for 45 minutes, after which 100 μL FACS buffer was added to dilute the primary antibody. The cells were then pelleted by centrifuging at 1500 rpm for 3 minutes, and the pellet was resuspended in 100 μL FACS buffer. The pelleting step was repeated, and the FACS buffer supernatant was removed. Cells were then resuspended in the appropriate secondary antibody (5 μg/ml) with 7AAD dye (10 μg/ml), and stained on ice for 7 minutes. Then 150 μL of FACS buffer was added and the cells were pelLeted at 1500 rpm for 3 minutes, after which the cells were washed in 100 μL FACS buffer, pelleted, and then resuspended in 250 μL buffer and added to FACS tubes. Samples were analyzed on a high throughput FACS machine and analyzed using Cell Quest Pro software.

[5] = target: T4, soluble αVβ6 (human, UniProt P06756 31-992; P18564 22-709); assay: competition ELISA: soluble αVβ6 (250 ng/ml) pre-incubated with the mAb, then binding to plate-coated GST-LAP, bound αVβ6 detected with mAb 2075
T4 construct: extracellular domain; also called soluble antigen; soluble αVβ6 protein
T4 sequence (P06756 31-992, one chain of several): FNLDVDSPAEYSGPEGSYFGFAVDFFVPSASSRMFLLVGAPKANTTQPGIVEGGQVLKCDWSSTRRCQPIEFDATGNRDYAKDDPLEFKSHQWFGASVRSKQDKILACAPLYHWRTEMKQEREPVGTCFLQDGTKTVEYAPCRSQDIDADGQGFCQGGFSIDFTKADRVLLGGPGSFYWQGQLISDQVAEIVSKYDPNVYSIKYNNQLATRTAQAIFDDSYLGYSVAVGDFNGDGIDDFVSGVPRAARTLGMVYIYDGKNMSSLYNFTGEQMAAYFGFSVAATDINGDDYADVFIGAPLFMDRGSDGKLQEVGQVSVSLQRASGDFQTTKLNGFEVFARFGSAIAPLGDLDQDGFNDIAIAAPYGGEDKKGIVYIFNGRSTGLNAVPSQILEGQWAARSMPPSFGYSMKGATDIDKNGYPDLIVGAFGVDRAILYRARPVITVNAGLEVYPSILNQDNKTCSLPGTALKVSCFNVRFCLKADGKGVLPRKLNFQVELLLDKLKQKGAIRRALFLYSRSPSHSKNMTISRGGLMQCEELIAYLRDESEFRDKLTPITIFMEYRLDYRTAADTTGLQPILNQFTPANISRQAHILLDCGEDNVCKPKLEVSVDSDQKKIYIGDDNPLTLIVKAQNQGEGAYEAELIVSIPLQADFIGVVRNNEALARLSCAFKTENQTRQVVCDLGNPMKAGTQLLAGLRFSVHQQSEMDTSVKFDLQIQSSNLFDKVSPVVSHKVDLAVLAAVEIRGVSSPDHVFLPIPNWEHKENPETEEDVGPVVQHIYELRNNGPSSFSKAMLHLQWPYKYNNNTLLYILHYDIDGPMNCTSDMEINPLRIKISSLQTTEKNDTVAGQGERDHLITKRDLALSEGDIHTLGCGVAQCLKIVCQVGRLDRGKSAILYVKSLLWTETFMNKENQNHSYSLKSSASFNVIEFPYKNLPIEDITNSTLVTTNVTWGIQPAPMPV
Experimental: The wells were then washed three times using 300 μL/well of assay diluent. […] The wells were then washed three times using 300 μL/well of assay diluent, and incubated with goat anti-mouse IgG Fc-peroxidase at 400 ng/ml in assay diluent (50 μL/well) for one hour at room temperature. The wells were then washed three times using 300 μL/well of assay diluent, and developed using 1-step TMB (Neogen) at a total volume of 50 μL/well. After 15 minutes, the developing reaction was quenched with 50 μL/well of 1N Hydrochloric acid.

T1 sequence (A0A2K5WCD3 entry or part of it limits assumed): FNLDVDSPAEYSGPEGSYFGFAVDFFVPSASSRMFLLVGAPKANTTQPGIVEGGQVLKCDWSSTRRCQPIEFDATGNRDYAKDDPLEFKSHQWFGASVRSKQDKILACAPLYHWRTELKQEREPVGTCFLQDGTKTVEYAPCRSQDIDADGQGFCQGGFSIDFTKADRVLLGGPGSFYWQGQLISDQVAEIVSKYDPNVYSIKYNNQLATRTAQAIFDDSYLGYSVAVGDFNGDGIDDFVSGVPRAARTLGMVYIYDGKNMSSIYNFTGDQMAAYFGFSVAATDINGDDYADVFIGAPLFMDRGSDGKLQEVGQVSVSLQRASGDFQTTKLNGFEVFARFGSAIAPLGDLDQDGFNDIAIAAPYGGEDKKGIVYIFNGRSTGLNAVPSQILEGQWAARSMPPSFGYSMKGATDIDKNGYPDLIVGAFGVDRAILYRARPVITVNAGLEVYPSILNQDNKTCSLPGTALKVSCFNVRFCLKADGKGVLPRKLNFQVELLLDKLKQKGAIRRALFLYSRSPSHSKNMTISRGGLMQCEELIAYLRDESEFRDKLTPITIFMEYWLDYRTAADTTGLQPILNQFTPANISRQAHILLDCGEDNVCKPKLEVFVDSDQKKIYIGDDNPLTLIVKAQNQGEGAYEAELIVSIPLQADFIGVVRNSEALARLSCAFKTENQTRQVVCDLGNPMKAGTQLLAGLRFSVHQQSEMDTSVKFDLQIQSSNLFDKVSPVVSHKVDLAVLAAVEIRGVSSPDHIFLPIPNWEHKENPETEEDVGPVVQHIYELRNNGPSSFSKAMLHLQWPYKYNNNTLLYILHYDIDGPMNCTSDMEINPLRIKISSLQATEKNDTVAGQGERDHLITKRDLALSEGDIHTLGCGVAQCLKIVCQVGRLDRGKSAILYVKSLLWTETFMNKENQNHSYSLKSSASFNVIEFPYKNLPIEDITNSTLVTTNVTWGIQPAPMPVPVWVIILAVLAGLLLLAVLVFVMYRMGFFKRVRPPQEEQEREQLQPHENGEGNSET

B1: sc 298 (antibody, V domains shown)
VH: QVQLVESGGGVVQPGRSLRLSCAASGFTFSSYGMHWVRQAPGKGLEWVAVIWYGGSNKYYADSVKGRFTISRDNSKNTLYLQMNSLRAEDTAVYYCARDLAARRGDYYYYGMDVWGQGTTVTVSS
VL: SSELTQDPVVSVALGQTVRITCQGDSLRSYYLSWYQQKPGQAPVLVIYGKNNRPSGIPDRFSGSNSGNTASLTITGAQAEDEADYYCNSRDSSGNHLFGGGTKLTVL
notes: Fully human XenoMouse mAb
Q: B1 was tested. Which “percent of cells shifted” value [1] did it give?
A: Its value is 48%.

Q: What about the “percent of cells shifted” value [2] of the same binder?
A: Its value is 53%.

Q: And the “percent of cells shifted” value [3]?
A: The value was 38%.

Q: And the “Mac AVB6 % Cells Shifted” value [4]?
A: The value was 53%.

Q: What about the “Mac AVB6 GeoMean” value [4] of the same binder?
A: The value was 63.1.

Q: And the “IC50 (read off the curve)” value [5]?
A: Its value is ~0.2 µg/mL.
